Data as given in the RNAGym collection of RNA variant scans (doi:10.1093/molbev/msab373).

B1: Azoarcus group I ribozyme (parent)
chain: GUGCCUUGCGCCGGGAAACCACGCAAGGGAUGGUGUCAAAUUCGGCGAAACCUAAGCGCCCGCCCGGGCGUAUGGCAACGCCGAGCCAAGCUUCGGCGCCUGCGCCGAUGAAGGUGUAGAGACUAGACGGCACCCACCUAAGGCAAACGCUAUGGUGAAGGCAUAGUCCAGGGAGUGGCGAAAGUCACACAAACCGG

Variants of: B1
Test: reverse-splicing fitness (ratio to wild type); higher = more active; in vitro selection; Mg2+ level not given
Procedure, shortened: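 An in vitro group I ribozyme library with randomized positions was T7-transcribed and gel-purified. In triplicate, 10 pmol RNA in EPPS pH 7.5 was reacted with 50 pmoles of a 30-nt RNA substrate for 1 h at 37 °C across several added MgCl2 levels (1–48 mM), then stopped with EDTA. Products were reverse transcribed from a substrate-complementary primer, PCR-amplified and sequenced (HiSeq 4000). Fitness is a variant's read proportion after selection over that before, normalised to wild type.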

| Variant | reverse-splicing fitness |
| --- | --- |
| C82G A111G A120G C150U C169A U176A | 0.0193 |
| C82G A111G A120G C150U C169A U176G | 0.00607 |
| C82G A111G A120G C150U C169A U176C | 0.0197 |
| C82G A111G A120G A145U C150A C169A U176A | 0.0175 |
| C82G A111G A120G A145U C150A C169A U176C | 0.0159 |
| C82G A111G A120G A145U C150A C169A U176G | 0.00495 |
| C82G A111G A120G C150A C169A U176A | 0.0233 |
| C82G A111G A120G C150A C169A U176G | 0.00698 |
| C82G A111G A120G C150A C169A U176C | 0.0216 |
| C82G A111G A120G U176G | 0.00869 |
| C82G A111G A120G U176C | 0.0217 |
| C82G A111G A120G U176A | 0.0172 |
| C82G A111G A120G C150U C169G U176C | 0.0206 |
| C82G A111G A120G C150U C169G U176G | 0.00549 |
| C82G A111G A120G C150U C169G U176A | 0.0182 |
| C82G A111G A120G A145U C150U U176C | 0.0212 |
| C82G A111G A120G A145U C150U U176A | 0.0125 |
| C82G A111G A120G A145U C150U U176G | 0.00626 |
| C82G A111G A120G C150A U176C | 0.023 |
| C82G A111G A120G C150A U176G | 0.0109 |
| C82G A111G A120G C150A U176A | 0.0148 |

| Variant | reverse-splicing fitness |
| --- | --- |
| C82G A111G A120G A145G C169A U176C | 0.0235 |
| C82G A111G A120G A145G C169A U176A | 0.0166 |
| C82G A111G A120G A145G C169A U176G | 0.00443 |
| C82G A111G A120G A145U C150U C169U U176G | 0.00452 |
| C82G A111G A120G A145U C150U C169U U176A | 0.0186 |
| C82G A111G A120G A145U C150U C169U U176C | 0.0182 |
| C82G A111G A120G C150G C169U U176G | 0.00715 |
| C82G A111G A120G C150G C169U U176C | 0.0158 |
| C82G A111G A120G C150G C169U U176A | 0.0119 |
| C82G A111G A120G A145U C150G C169G U176G | 0.00457 |
| C82G A111G A120G A145U C150G C169G U176C | 0.00676 |
| C82G A111G A120G A145U C150G C169G U176A | 0.00751 |
| C82G A111G A120G A145G C169U | 0.0134 |
| C82G A111G A120G A145G C169A | 0.0141 |
| C82G A111G A120G A145G C169G | 0.0197 |
| C82G A111G A120G A145U C150U C169U | 0.0114 |
| C82G A111G A120G A145U C150U C169A | 0.0123 |
| C82G A111G A120G A145U C150U C169G | 0.0148 |
| C82G A111G A120G A145G C150U U176A | 0.0115 |
| C82G A111G A120G A145G C150U U176C | 0.0189 |
| C82G A111G A120G A145G C150U U176G | 0.00823 |

| Variant | reverse-splicing fitness |
| --- | --- |
| C82G A111G A120G A145G C150U | 0.0167 |
| C82G A111G A120G A145U C150U C169A U176C | 0.0159 |
| C82G A111G A120G A145U C150U C169A U176G | 0.00619 |
| C82G A111G A120G A145U C150U C169A U176A | 0.0154 |
| C82G A111G A120G C150U C169U | 0.0114 |
| C82G A111G A120G C150U C169G | 0.0154 |
| C82G A111G A120G C150U C169A | 0.0118 |
| C82G A111G A120G A145G U176G | 0.00696 |
| C82G A111G A120G A145G U176A | 0.0129 |
| C82G A111G A120G A145G U176C | 0.0204 |
| C82G A111G A120G C150A C169A | 0.0123 |
| C82G A111G A120G C150A C169G | 0.0105 |
| C82G A111G A120G C150A C169U | 0.00799 |
| C82G A111G A120G C150G C169G U176A | 0.00837 |
| C82G A111G A120G C150G C169G U176C | 0.00628 |
| C82G A111G A120G C150G C169G U176G | 0.0053 |
| C82G A111G A120G A145U C169G U176A | 0.0149 |
| C82G A111G A120G A145U C169G U176C | 0.0187 |
| C82G A111G A120G A145U C169G U176G | 0.0044 |
| C82G A111G A120G C150A | 0.0101 |
| C82G A111G A120G C150U | 0.0156 |

| Variant | reverse-splicing fitness |
| --- | --- |
| C82G A111G A120G C150G | 0.00784 |
| C82G A111G A120G A145U C169U | 0.012 |
| C82G A111G A120G A145U C169A | 0.0118 |
| C82G A111G A120G A145U C169G | 0.0203 |
| C82G A111G A120G A145G C150U C169U | 0.0141 |
| C82G A111G A120G A145G C150U C169G | 0.0181 |
| C82G A111G A120G A145G C150U C169A | 0.0144 |
| C82G A111G A120G A145U C150G C169A U176C | 0.0133 |
| C82G A111G A120G A145U C150G C169A U176A | 0.0118 |
| C82G A111G A120G A145U C150G C169A U176G | 0.00555 |
| C82G A111G A120U A145C C150A | 0.00572 |
| C82G A111G A120G C150G U176G | 0.00387 |
| C82G A111G A120G C150G U176A | 0.0085 |
| C82G A111G A120G C150G U176C | 0.0157 |
| C82G A111G A120G A145G C150G U176G | 0.00608 |
| C82G A111G A120G A145G C150G U176A | 0.00718 |
| C82G A111G A120G A145G C150G U176C | 0.0114 |
| C82G A111G A120G A145U U176C | 0.0242 |
| C82G A111G A120G A145U U176G | 0.00543 |
| C82G A111G A120G A145U U176A | 0.0167 |
